Ends that are not written are not given here. fluorescein = fluorescein label on the N-terminus of the peptide
How the values were obtained:
Experiment in all cases: fluorescence anisotropy
[1] = target: T1, Src-optimal substrate peptide Rs1 (synthetic construct)
T1 chain: fluorescein-AEEEIYGEFAKKK

[2] = target: T2, Src-optimal substrate peptide Rs1 (synthetic construct)
T2 chain: fluorescein-AEEEIYGEFAKKK

[3] = target: T3, Src-optimal substrate peptide Rs1 (synthetic construct)
T3 chain: fluorescein-AEEEIYGEFAKKK

B1: Src kinase domain 251-533 (protein)
chain: QTQGLAKDAWEIPRESLRLEVKLGQGCFGEVWMGTWNGTTRVAIKTLKPGTMSPEAFLQEAQVMKKLRHEKLVQLYAVVSEEPIYIVTEYMSKGSLLDFLKGEMGKYLRLPQLVDMAAQIASGMAYVERMNYVHRDLRAANILVGENLVCKVADFGLARLIEDNEYTARQGAKFPIKWTAPEAALYGRFTIKSDVWSFGILLTELTTKGRVPYPGMVNREVLDQVERGYRMPCPPECPESLHDLMCQCWRKDPEERPTFEYLQAFLEDYFTSTEPQYQPGENL
For B1, the Kd [1] was 37 µM, the Kd [2] was 17 µM and the Kd [3] was 16 µM.

From article PMC4300553 (2015)
